Data published in patent US20090305973A1, “NOVEL PEPTIDE AND USE THEREOF” (priority 2006, published 2009).
Where no end group is shown, it is not given here.

Tests used:
[1] = tested on: Human foreskin fibroblast cells; test: Fibroblast proliferation, tritium-labeled thymidine incorporation; format: cell-based; details: for activity of inducing the proliferation of fibroblast cells: 100 nM, 12 hours, incorporated thymidine
Method: (§1) Human foreskin fibroblast cells (MC1232 obtained from MIT), U2OS cells (ATCC HTB-96) and bovine aorta endothelial cells (hereinafter, referred to as “BAECs”) were treated with the AIMP1 fragments cleaved by elastase 2 in Test Example <1-1>, and the effects of the AIMP1 fragments on the proliferation of the cells were examined.
(§2) Bovine aorta endothelial cells (BAECs) were isolated from bovine descending thoracic aorta and cultured in Dulbecco's modified Eagle's medium (DMEM) containing 20% FBS at 37° C. in a 5% CO2 atmosphere. The foreskin fibroblast cells and the U2OS cells were cultured in DMEM with 10% FBS and 1% antibiotic. Each of the cultured cell lines (5×10^3 cells) was cultivated in a 24-well dish for 12 hours and then subjected to serum-starved culture for 3 hours. Next, 100 nM of a full-length AIMP1 or fragments of AIMP1 cleaved with an enzyme were added to each well and cultivated for 12 hours. The control group was without the testing agents. After completion of the cultivation, tritium-labeled thymidine (1 μCi/well) was added to each well, and the cells were additionally cultured at 37° C. for 4 hours. The cultured cells were washed with PBS three times and fixed with 5% TCA for 10 minutes, followed by washing again with PBS three times. The cells were lysed with 0.5N NaOH, and the incorporated thymidine was quantified with a liquid scintillation counter.
In order to examine the fibroblast proliferation activities of the recombinant proteins constructed in Example 1, foreskin fibroblast cells were treated with each of the recombinant proteins in the same manner as in Test Example <1-2>, and the proliferation of the fibroblast cells was examined.
Whether the AIMP1-(6-46) fragment synthesized in Example <3-1> stimulates the proliferation of fibroblast cells was examined in the same manner as in Test Example <1-2>. Herein, the AIMP1-(6-46) fragment was used at various concentrations ([…]), and 100 nM of the full-length AIMP1 (AIMP1-(1-132)) was used as a control.

C57BL/6 mice = test: In vivo wound healing (wound closure) of excised back skin wound; details: 200 nM in PBS containing 20% glycerol, applied to wound twice a day until day 8, 0.5 cm-diameter back wound
Method: AIMP1-(14-34) (SEQ ID NO: 6) and AIMP1-(26-46) (SEQ ID NO: 7) fragments smaller than the AIMP1-(6-46) fragment synthesized in Example 3 were synthesized by a chemical synthetic method in Peptron (http://www.peptron.co.kr), and the wound healing-promoting activities thereof were analyzed in vivo. The analysis of the wound healing activities was performed using 8-week-old C57BL/6 mice. The mice were anesthetized with an intraperitoneal injection of 2.5% avertin (100 μl/10 g), and then the back of each animal was shaved, followed by disinfecting the back skin with 70% alcohol. The back skin was marked with a 0.5 cm-diameter circle, and a skin and panniculus carnosus muscle was removed with scissors to induce a wound. The wounds were left uncovered without a dressing. One wound was generated per mouse and treated with 200 nM of each of AIMP1-(14-34), AIMP1-(26-46) and AIMP1-(6-46) fragments in PBS (phosphate-buffered saline) containing 20% glycerol, twice a day at 12-hour intervals until day 8 after wounding. A control group was treated only with PBS containing 20% glycerol. Then, wound closure was monitored daily using the Image-pro Plus software and was calculated as the percentage of the initial wound area.

[2] = tested on: bovine aorta endothelial cells; test: Endothelial cell proliferation, tritium-labeled thymidine incorporation; format: cell-based; details: 100 nM, 12 hours, BAECs, incorporated thymidine
Method: as §1, §2

Molecule | activity of inducing the proliferation of fibroblast cells ([1]; foreskin fibroblast cells) | also measured
AIMP1-(1-46): recombinant deletion mutant of AIMP1, expressed as GST-tag fusion protein (MANNDAVLKRLEQKGAEADQIIEYLKQQVSLLKEKAILQATLREEK; also: GST tag fusion, end not given here; listed as Homo sapiens) | high proliferation-inducing activity | 
AIMP1-(1-53): recombinant deletion mutant of AIMP1, expressed as GST-tag fusion protein (MANNDAVLKRLEQKGAEADQIIEYLKQQVSLLKEKAILQATLREEKKLRVENA; also: GST tag fusion, end not given here; listed as Homo sapiens) | high proliferation-inducing activity | 
AIMP1-(14-34): 21-amino-acid fragment of AIMP1-(6-46), chemically synthesized (KGAEADQIIEYLKQQVSLLKE; PEPTIDE (1)..(21) AIMP1-(14-34); listed as Homo sapiens) |  | activity of promoting wound healing (wound closure as percentage of the initial wound area) (C57BL/6 mice): had the activities of promoting wound healing
AIMP1-(26-46): 21-amino-acid fragment of AIMP1-(6-46), chemically synthesized (KQQVSLLKEKAILQATLREEK; PEPTIDE (1)..(21) AIMP1-(26-46); listed as Homo sapiens) |  | activity of promoting wound healing (wound closure as percentage of the initial wound area) (C57BL/6 mice): had the activities of promoting wound healing
NH2-AVLKRLEQKGAEADQIIEYLKQQVSLLKEKAILQATLREEK-COOH (H-AVLKRLEQKGAEADQIIEYLKQQVSLLKEKAILQATLREEK-OH; listed as Homo sapiens) [AIMP1-(6-46), peptide corresponding to amino acids 6-46 of AIMP1, expressed in E. coli] |  | activity of promoting wound healing (wound closure as percentage of the initial wound area) (C57BL/6 mice): had the activities of promoting wound healing; proliferation of fibroblast cells, dose dependence ([1]; concentrations 0, 50, 100 and 200 mM (so in the source), foreskin fibroblast cells): induced the proliferation of fibroblast cells in a dose-dependent manner; fibroblast proliferation activity compared with full-length AIMP1 at the same concentration ([1]; control 100 nM full-length AIMP1): almost similar to the full-length AIMP1
AIMP1-(30-192): recombinant deletion mutant of AIMP1, expressed as GST-tag fusion protein (protein, UniProt Q12904 30-192, looked up, fragment, GST tag, recombinant deletion mutant of AIMP1, expressed as GST-tag fusion protein) SLLKEKAILQATLREEKKLRVENAKLKKEIEELKQELIQAEIQNGVKQIPFPSGTPLHANSMVSENVIQSTAVTTVSSGTKEQIKGGTGDEKKAKEKIEKKGEKKEKKQQSIAGSADSKPIDVSRLDLRIGCIITARKHPDADSLYVEEVDVGEIAPRTVVSG | did not | 
AIMP1-(114-192): recombinant deletion mutant of AIMP1, expressed as GST-tag fusion protein (protein, UniProt Q12904 114-192, looked up, fragment, GST tag, recombinant deletion mutant of AIMP1, expressed as GST-tag fusion protein) KGGTGDEKKAKEKIEKKGEKKEKKQQSIAGSADSKPIDVSRLDLRIGCIITARKHPDADSLYVEEVDVGEIAPRTVVSG | did not | 
AIMP1-(47-192): recombinant deletion mutant of AIMP1, expressed as GST-tag fusion protein (protein, UniProt Q12904 47-192, looked up, fragment, GST tag, recombinant deletion mutant of AIMP1, expressed as GST-tag fusion protein) KLRVENAKLKKEIEELKQELIQAEIQNGVKQIPFPSGTPLHANSMVSENVIQSTAVTTVSSGTKEQIKGGTGDEKKAKEKIEKKGEKKEKKQQSIAGSADSKPIDVSRLDLRIGCIITARKHPDADSLYVEEVDVGEIAPRTVVSG | did not | 
AIMP1-(193-312): recombinant deletion mutant of AIMP1, expressed as GST-tag fusion protein (protein, UniProt Q12904 193-312, looked up, fragment, GST tag, recombinant deletion mutant of AIMP1, expressed as GST-tag fusion protein) LVNHVPLEQMQNRMVILLCNLKPAKMRGVLSQAMVMCASSPEKIEILAPPNGSVPGDRITFDAFPGEPDKELNPKKKIWEQIQPDLHTNDECVATYKGVPFEVKGKGVCRAQTMSNSGIK | did not | 
AIMP1-(6-192): recombinant deletion mutant of AIMP1, expressed as GST-tag fusion protein (protein, listed as Homo sapiens, GST tag fusion; PEPTIDE (1)..(187) AIMP1-(6-192), recombinant deletion mutant of AIMP1, expressed as GST-tag fusion protein) AVLKRLEQKGAEADQIIEYLKQQVSLLKEKAILQATLREEKKLRVENAKLKKEIEELKQELIQAEIQNGVKQIAFPSGTPLHANSMVSENVIQSTAVTTVSSGTKEQIKGGTGDEKKAKEKIEKKGEKKEKKQQSIAGSADSKPIDVSRLDLRIGCIITARKHPDADSLYVEEVDVGEIAPRTVVSG | high proliferation-inducing activity | 
AIMP1-(54-192): recombinant deletion mutant of AIMP1, expressed as GST-tag fusion protein (protein, UniProt Q12904 54-192, looked up, fragment, GST tag, recombinant deletion mutant of AIMP1, expressed as GST-tag fusion protein) KLKKEIEELKQELIQAEIQNGVKQIPFPSGTPLHANSMVSENVIQSTAVTTVSSGTKEQIKGGTGDEKKAKEKIEKKGEKKEKKQQSIAGSADSKPIDVSRLDLRIGCIITARKHPDADSLYVEEVDVGEIAPRTVVSG | did not | 
AIMP1-(1-192): recombinant deletion mutant of AIMP1, expressed as GST-tag fusion protein (protein, listed as Homo sapiens, GST tag fusion; PEPTIDE (1)..(192) AIMP1-(1-192), recombinant deletion mutant of AIMP1, expressed as GST-tag fusion protein) MANNDAVLKRLEQKGAEADQIIEYLKQQVSLLKEKAILQATLREEKKLRVENAKLKKEIEELKQELIQAEIQNGVKQIAFPSGTPLHANSMVSENVIQSTAVTTVSSGTKEQIKGGTGDEKKAKEKIEKKGEKKEKKQQSIAGSADSKPIDVSRLDLRIGCIITARKHPDADSLYVEEVDVGEIAPRTVVSG | high proliferation-inducing activity | 
AIMP1-(1-312): full-length ARS-interacting multi-functional protein 1 consisting of 312 amino acids (protein, listed as Homo sapiens) MANNDAVLKRLEQKGAEADQIIEYLKQQVSLLKEKAILQATLREEKKLRVENAKLKKEIEELKQELIQAEIQNGVKQIAFPSGTPLHANSMVSENVIQSTAVTTVSSGTKEQIKGGTGDEKKAKEKIEKKGEKKEKKQQSIAGSADSKPIDVSRLDLRIGCIITARKHPDADSLYVEEVDVGEIAPRTVVSGLVNHVPLEQMQNRMVILLCNLKPAKMRGVLSQAMVMCASSPEKIEILAPPNGSVPGDRITFDAFPGEPDKELNPKKKIWEQIQPDLHTNDECVATYKGVPFEVKGKGVCRAQTMSNSGIK | high proliferation-inducing activity | activity of inhibiting the proliferation of endothelial cells [2]: inhibiting the proliferation of endothelial cells
AIMP1-(101-192): recombinant deletion mutant of AIMP1, expressed as GST-tag fusion protein (protein, UniProt Q12904 101-192, looked up, fragment, GST tag, recombinant deletion mutant of AIMP1, expressed as GST-tag fusion protein) AVTTVSSGTKEQIKGGTGDEKKAKEKIEKKGEKKEKKQQSIAGSADSKPIDVSRLDLRIGCIITARKHPDADSLYVEEVDVGEIAPRTVVSG | did not | 
